Kd, EC50 and IC50 data for 13 molecules are collected here from US20250186597A1, “TARGETED IMMUNE ACTIVATION WITH IL-18 IMMUNOCYTOKINES” (BRIGHT PEAK THERAPEUTICS AG, priority 2023, published 2025).

One assay concerns the target T1, human IL-18BP (Homo sapiens, UniProt O95998).
T1 construct: His
T1 sequence (O95998 31-194): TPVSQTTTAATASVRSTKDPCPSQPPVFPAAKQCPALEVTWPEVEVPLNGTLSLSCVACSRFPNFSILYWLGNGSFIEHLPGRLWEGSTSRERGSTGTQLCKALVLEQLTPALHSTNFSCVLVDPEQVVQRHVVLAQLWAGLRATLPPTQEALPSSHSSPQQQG
The assay is described as follows: IL-18BP binding alphaLISA assay (Example 4, used in Example 22B). The conditions noted are these: IL-18BP AlphaLISA. On the procedure: A human IL-18BP AlphaLISA Assay Kit is used to determine the binding affinity of each immunocytokine and IL-18 variant for IL-18BP, which detected the presence of free form IL-18BP.
Sixteen three-fold serial dilutions of IL-18 analytes are prepared in aMEM medium supplemented with 20% FCS, Glutamax, and 25 µM β-mercaptoethanol in the presence of 5 ng/mL of His-tagged human IL-18BP. Final IL-18 analytes concentration range from 2778 nM to […].
After 1 hr incubation at room temperature, free IL-18BP levels are measured using a […]. In a 384 well OPTIplate, 5 μL of 5× Anti-IL-18BP acceptor beads are added to 7.5 μL of an IL-18/IL-18BP mix. After 30 min incubation at room temperature with shaking, 5 μL of biotinylated Anti-IL-18BP antibodies are added to each well. The plate is incubated further for 1 hr at room temperature. Under subdued light, 12.5 μL of 2× streptavidin (SA) donor beads are pipetted into each well, and the wells are incubated with shaking for an additional 30 min at room temperature. The AlphaLisa signal is then measured on an Enspire plate reader with 680 and 615 nm as excitation and emission wavelengths, respectively. The dissociation constant (KD) is calculated based on a variable slope, four parameter analysis using GraphPad PRISM software.
An IL-18 binding protein AiphaLISA experiment substantially as described in Example 4 was performed on IL-18 polypeptide which can be incorporated into immunocytokine compositions as provided herein to assess ability to bind to IL-181BP. It is expected that the IL-18 polypeptides provided below would behave analogously to C086 (SEQ ID NO: 30) when incorporated into an immunocytokine composition as those otherwise provided herein.
In general terms: Alpha assays give light when donor and acceptor beads are brought close together.

In assay [1] the test system is NK-92 cells. The assay is described as follows: IFNγ induction cellular assay in NK-92 cells (Example 4, used in Example 22C). It is filed as cell-based, human. The note with it: IFNg stimulation in NK92 cells. As to the method: The ability of immunocytokines and IL-18 polypeptides provided herein are assessed for ability to induce IFN[…] in a cellular assay according to the protocol below.
The NK cell line NK-92 derived from a patient with lymphoma (ATCC® CRL-2407™) is cultured in aMEM medium supplemented with 20% FCS, Glutamax, 25 µM B-mercaptoethanol, and 100 IU/mL of recombinant human IL-2.
On the day of experiment, cells are harvested and washed with aMEM medium without IL-2 and containing 1 ng/mL of recombinant human IL-12. After counting, cells are seeded at 100,000 cells/well in a 384 well titer plate and incubated at 37° C./5% CO2. Sixteen 4-fold serial dilutions of IL-18 analytes are prepared in aMEM medium, and 1 ng/mL of IL-12 were added to the NK-92 cells. Final IL-18 analyte concentrations range from 56 nM to 5×10^−5 pM.
After incubating the cells for 16-20 hr at 37° C./5% CO2, 5 μL of supernatant is carefully transferred to a 384 microwell OptiPlate. IFNγ levels are measured using a human IFNγ AlphaLISA Assay Kit. Briefly, 10 μL of 2.5× AlphaLISA Anti-IFNγ acceptor beads and biotinylated antibody anti-IFNγ mix are added to the 5 μL of NK-92 supernatants. The mixtures are incubated for 1 hr at room temperature with shaking. Under subdued light, 2.5 μL of 2× streptavidin (SA) donor beads are pipetted into each well, and the wells are incubated for 30 min at room temperature with shaking. AlphaLISA signals are then measured on an EnSpire™ plate reader using 680 nm and 615 nm as excitation and emission wavelengths, respectively. Half maximal effective concentrations (EC50) are calculated based on a variable slope and four parameter analysis using GraphPad PRISM software.
(§1) The experiments described in Example 4 for determination of IFNg stimulation in NK92 cells (and inhibition by IL-18 BP) were performed substantially as described on IL-18 polypeptides in order to assess their activities and their suitability for incorporation into immunocytokine compositions. It is expected that the IL-18 polypeptides provided below would behave analagously to C086 (SEQ ID NO: 30) when incorporated into an immunocytokine composition as those otherwise provided herein.

In assay [2] the test system is NK-92 cells. The experiment in a line: IL-18 binding protein inhibition cellular assay in NK-92 cells (Example 4, used in Example 22C). It is filed as cell-based, human. The conditions noted are these: inhibition by IL-18BP of IFNg stimulation in NK92 cells. On the procedure:
The NK cell line NK-92 derived from a patient with lymphoma (ATCC® CRL-2407™) is cultured in aMEM medium supplemented with 20% FCS-Glutamax, 25 µM B-mercaptoethanol, and 100 IU/mL of recombinant human IL-2.
On the day of experiment, cells are harvested and washed with aMEM medium without IL-2 and containing 1 ng/mL of recombinant human IL-12. After counting, the cells are seeded at 100,000 cells/well in a 384 well titer plate and incubated at 37° C./5% CO2. Sixteen 2-fold serial dilutions of Fc-fused human IL-18 binding protein isoform a (IL-18BPa) are prepared in aMEM medium. 1 ng/mL of IL-12 containing 2 nM of each IL-18 polypeptide variant is added to the NK-92 cells. The final IL-18 analyte concentration is 1 nM, and the final IL-18BPa concentration ranged from 566 nM to […].
After incubating the cells for 16-20 hr at 37° C./5% CO2, 5 μL of the supernatant is carefully transferred to a 384 microwell OptiPlate. IFNγ levels are measured using a human IFNγ AlphaLISA Assay Kit. Briefly, 10 μL of 2.5× AlphaLISA anti-IFNγ acceptor beads and biotinylated antibody anti-IFNγ mix are added to 5 μL of NK-92 supernatants. The mixtures are incubated for 1 hr at room temperature with shaking. Under subdued light, 2.5 μL of 2×SA donor beads are pipetted in each well and incubated for 30 min at room temperature with shaking. AlphaLISA signals are then measured on an EnSpire™ plate reader using 680 nm and 615 nm as excitation and emission wavelengths, respectively. Half maximal inhibitory concentrations (IC50) are calculated based on a variable slope and four parameter analysis using GraphPad PRISM software.
as §1

B1: 42 (protein)
chain: YFGKLKSKLSVIRNLNDQVLFIDQGNRPLFEDMTDSDCRDNAPRTIFIISMYADAQPRGMAVAISVKCEKISTLSCENKIISFKEMNPPDNIKDTKSDIIFFQRSVPGHDNKMQFESSSYEGYFLACEKERDLFKLILKKEDELGDRSIMFTVQNED
A word on the Kd: it is the concentration at which binding is half-saturated. Read a high Kd as a looser complex. Broadly, the EC50 is the concentration at which the effect is half-maximal. Higher therefore signals weaker potency. In general, IC50 refers to the concentration needed to halve the response being measured. Read a low IC50 as greater potency. Turning to B1, the Kd in the assay with human IL-18BP was 822 nM. Also, the EC50 in the assay with NK-92 cells [1] was 0.144 nM. In the assay with NK-92 cells [2], this molecule came in with an IC50 of 1060 nM.

B2: 6 (protein)
chain: YFGKLKSKLSIIRNLNDQVLFIDQGNRPLFEDMTDSDARDNAPRTIFIISMYADSQPRGMAVAISVKAEKISTLSAENKIISFKEMNPPDNIKDTKSCIIFFQRSVPGHDNKMQFESSSYEGYFLAAEKERDLFKLILKKEDELGDRSIMFTVQNED
Regarding B2, a half-maximal effect with NK-92 cells [1] (EC50) was put at 1.37 nM. The same molecule gave an IC50 with NK-92 cells [2] of 5.85 nM.

B3: 50 (protein)
chain: YFGKLKSKLSVIRNLNDQVLFIDQGNRPLFEDMTDSDCRDNAPRTIFIISMYADSQPRGMAVAISVKCEKISTLSCENKIISFKEMNPPDNIKDTKSDIIFFQRSVPGHDNKMQFESSSYEGYFLACEKERDLFKLILKKEDELGDRSIMFTVQNED
In turn, B3 returned a dissociation constant (Kd) in the assay with human IL-18BP of 340 nM. In the assay on NK-92 cells [1], this molecule gave an EC50 of 0.0268 nM. The IC50 in the assay on NK-92 cells [2] is greater than 1000 nM.

B4: 48 (protein)
chain: YFGKLESKLSVIRNLNDQVLFIDQGNRPLFEDMTDSDSRDNAPRTIFIISMYKDSQPRGMAVTISVKSECISTLSSENKIISFKEMNPPDNIKDTKSDIIFFQRSVPGHDNKMQFESSSYEGYFLASEKERDLFKLILKKEDELGDRSIMFTVQNED
In the assay with human IL-18BP, B4 showed a Kd of 0.21 nM. Besides, the response in the assay on NK-92 cells [1] was half-maximal at 0.488 nM (EC50). The molecule further had an IC50 in the assay with NK-92 cells [2] of 0.114 nM.

B5: 55 (protein)
chain: YFGKLESKLSVIRNLNDQVLFIDQGNRPLFEDMTDSDSRDNAPRTIFIISMYADSQPRGMAVAISVKSECISTLSSENKIISFKEMNPPDNIKDTKSDIIFFQRSVPGHDNKMQFESSSYEGYFLASEKERDLFKLILKKEDELGDRSIMFTVQNED
The molecule B5 registered a Kd in the assay with human IL-18BP of 913 nM. This molecule also gave an EC50 with NK-92 cells [1] of 17.2 nM. The molecule further had an IC50 in the assay on NK-92 cells [2] greater than 1000 nM.

B6: 46 (protein)
chain: YFGKLKSKLSVIRNLNDQVLFIDQGNRPLFEDMTDSDCRDNAPRTIFIISGYADAQPRGMAVTISVKCEKISTLSCENKIISFKEMNPPDNIKDTKSDIIFFQRSVPGHDNKMQFESSSYEGYFLACEKERDLFKLILKKEDELGDRSIMFTVQNED
For B6, the Kd with human IL-18BP was greater than 1000 nM. Also, the midpoint of the response with NK-92 cells [1], the EC50, lay at 7.4 nM. Besides, the IC50 with NK-92 cells [2] was found to be 0.189 nM.

B7: 49 (protein)
chain: YFGKLKSKLSVIRNLNDQVLFIDQGNRPLFEDMTDSDSRDNAPRTIFIISMYADAQPRGMAVTISVKSECISTLSSENKIISFKEMNPPDNIKDTKSDIIFFQRSVPGHDNKMQFESSSYEGYFLASEKERDLFKLILKKEDELGDRSIMFTVQNED
On to B7, for which, in the assay with human IL-18BP, the Kd was greater than 1000 nM. Besides, the EC50 in the assay on NK-92 cells [1] came to 58.5 nM.

B8: 54 (protein)
chain: YFGKLKSKLSVIRNLNDQVLFIDQGNRPLFEDMTDSDSRDNAPRTIFIISMYADSQPRGMAVTISVKSECISTLSSENKIISFKEMNPPDNIKDTKSDIIFFQRSVPGHDNKMQFESSSYEGYFLASEKERDLFKLILKKEDELGDRSIMFTVQNED
As to B8, the affinity with human IL-18BP, expressed as Kd, was 446 nM. It took 0.962 nM to reach a half-maximal effect in the assay on NK-92 cells [1] (EC50). Moreover, in the assay on NK-92 cells [2], the IC50 is 23.5 nM.

B9: C143: IL-18 polypeptide: V11I, C38A, K53A, C76A, C127A (protein)
chain: YFGKLESKLSIIRNLNDQVLFIDQGNRPLFEDMTDSDARDNAPRTIFIISMYADSQPRGMAVTISVKCEKISTLSAENKIISFKEMNPPDNIKDTKSDIIFFQRSVPGHDNKMQFESSSYEGYFLAAEKERDLFKLILKKEDELGDRSIMFTVQNED
With B9, the Kd with human IL-18BP was 8.86 nM. Also, the EC50 in the assay on NK-92 cells [1] was 0.138 nM. Also, the IC50 in the assay with NK-92 cells [2] amounted to 1.62 nM.

B10: 5 (protein)
chain: YFGKLKSKLSIIRNLNDQVLFIDQGNRPLFEDMTDSDARDNAPRTIFIISMYADSQPRGMAVAISVKAEKISTLSAENKIISFKECNPPDNIKDTKSDIIFFQRSVPGHDNKMQFESSSYEGYFLAAEKERDLFKLILKKEDELGDRSIMFTVQNED
B10: the concentration for a half-maximal effect (EC50) with NK-92 cells [1] amounted to 0.075 nM. The molecule further registered a half-inhibitory concentration (IC50) in the assay on NK-92 cells [2] of 62.4 nM.

B11: 57 (protein)
chain: YFGKLKSKLSVIRNLNDQVLFIDQGNRPLFEDMTDSDSRDNAPRTIFIISMYADSQPRGMAVTISVKCEKISTLSCENKIISFKEMNPPDNIKDTKSDIIFFQRSVPGHDNKMQFESSSYEGYFLACEKERDLFKLILKKEDELGDRSIMFTVQNED
On to B11, for which the Kd with human IL-18BP was 50.2 nM. In the assay with NK-92 cells [1], this molecule registered an EC50 of 0.045 nM. The IC50 with NK-92 cells [2] was found to be 146 nM.

B12: 45 (protein)
chain: YFGKLKSKLSVIRNLNDQVLFIDQGNRPLFEDMTDSDCRDNAPRTIFIISMYAAAQPRGMAVTISVKCEKISTLSCENKIISFKEMNPPDNIKDTKSDIIFFQRSVPGHDNKMQFESSSYEGYFLACEKERDLFKLILKKEDELGDRSIMFTVQNED
With B12, in the assay with human IL-18BP, the Kd was greater than 1000 nM. Further, the EC50 in the assay with NK-92 cells [1] is 30 nM.

B13: 47 (protein)
chain: YFGKLESKLSVIRNLNDQVLFIDQGNRPLFEDMTDSDSRDNAPRTIFIISMYKDSQPRGMAVTISVKSEKISTLSSENKIISFKEMNPPDNIKDTKSDIIFFQRSVPGHDNKMQFESSSYEGYFLASEKERDLFKLILKKEDELGDRSIMFTVQNED
In the assay with human IL-18BP, B13 yielded a Kd of 0.03 nM. Moreover, in the assay with NK-92 cells [1], a half-maximal response (EC50) required 0.115 nM. This molecule also returned an IC50 with NK-92 cells [2] of 0.444 nM.
